Experimental data: patent US20170066816A1 (University of Texas, published 2017)

B1: murine m11E6 antibody (antibody, V domains shown)
VH: EVKVVESGGGLVQPGGSLRLSCTTSGFTFTDYYVSWVRQPPGKALEWLGFIRNKVNGYTTEFSSSVKGRFTISRDNSQSILYLQMNTLRVEDSATYYCARVSYYGRGWYFDYWGQGTTLTVSS
VL: DIVMTQSTSSLSASLGDRVTISCRASQDIDNYLSWFQQKPDGTVKLLIYYTSRLHSGVPSRFSGSGSGTDYSLTISSLDQEDIATYFCQQGNTFPWTFGGGTKLEIK
notes: also called parental murine 11E6 antibody
B2: murine m1B7 antibody (antibody, V domains shown)
VH: QVQLQQPGSELVRPGASVKLSCKASGYKFTSYWMHWVKQRPGQGLEWIGNIFPGSGSTNYDEKFNSKATLTVDTSSNTAYMQLSSLTSEDSAVYYCTRWLSGAYFDYWGQGTTLTVSS
VL: QIVLTQSPALMSASPGEKVTMTCSASSSVSFMYWYQQKPRSSPKPWIYLTSNLPSGVPARFSGSGSGTSYSLTISSMEAEDAATYYCQQWSSHPPTFGSGTKLEIK
notes: also called parental murine 1B7 antibody
B3: chimeric 1B7 antibody (antibody, V domains shown)
VH: QVQLQQPGSELVRPGASVKLSCKASGYKFTSYWMHWVKQRPGQGLEWIGNIFPGSGSTNYDEKFNSKATLTVDTSSNTAYMQLSSLTSEDSAVYYCTRWLSGAYFDYWGQGTTLTVSS
VL: QIVLTQSPALMSASPGEKVTMTCSASSSVSFMYWYQQKPRSSPKPWIYLTSNLPSGVPARFSGSGSGTSYSLTISSMEAEDAATYYCQQWSSHPPTFGSGTKLEIK
notes: also called ch1B7

These binders were tested against T1, pertussis toxin protein (Bordetella pertussis, UniProt P04977 35-269; P04978 28-226; P04979 29-227; P0A3R5 43-152; P04981 35-133) (assay: BIAcore).
T1 construct: also called PTx; PT
Binder B1 has a kon of 80000 M⁻¹ s⁻¹.
B2 gave a kon of 170000 M⁻¹ s⁻¹.
For B3, the kon was 150000 M⁻¹ s⁻¹.
